Source: paper PMC9364601

Experiments:
[1] = target: microtubules polymerized from tubulin purified from goat brain, Taxol-stabilised (goat)
[2] = target: microtubules polymerized from tubulin purified from goat brain, Taxol-stabilised (goat); assay: single-molecule motility assay (TIRF); Taxol-stabilised MTs adsorbed on the coverslip, purified fluorescent motors in the motility mix; P12 buffer pH 6.8, BSA, 2 mM ATP, room temperature; run time and detachment rate computed from run length and velocity
[3] = target: microtubules polymerized from tubulin purified from goat brain, Taxol-stabilised (goat); remark: listed apart in the source

Molecule	microtubule affinity from the enzyme kinetics of the MT-stimulated ATPase, decrease compared to wild-type motors (times (decrease against wild type)) [1]	detachment rate from the MT (koff) [2] [s⁻¹]	mean run time (average time spent on the MT) [2] [s]	Km for microtubules of the MT-stimulated ATPase (Michaelis-Menten fit; 10 nM motor, 1-80 µM MTs, BRB80, room temperature) [3] [µM]
KIF1A R167C mutant motor, purified (domain or fragment)	1.5	–	–	–
KIF16B(1–400)-mCit-Flag (from UniProt Q96L93 1-400) (domain or fragment)	–	0.1	9.83	2.43
KIF1A(1-393LZ)-mCit-Flag (from UniProt F1M4A4 1-393) (domain or fragment)	–	0.23	4.38	7.03
KHC(1–560)-mCit-Flag (from UniProt P56536 1-560) (domain or fragment)	–	0.72	1.39	10.2
KIF13A(1-411ΔP390)-mCit-Flag (domain or fragment) MSDTKVKVAVRVRPMNRRELELNTKCVVEMEGNQTVLHPPPSNTKQGERKPPKVFAFDYCFWSMDESNTTKYAGQEVVFKCLGEGILEKAFQGYNACIFAYGQTGSGKSFSMMGHAEQLGLIPRLCCALFKRISLEQNESQTFKVEVSYMEIYNEKVRDLLDPKGSRQSLKVREHKVLGPYVDGLSQLAVTSFEDIESLMSEGNKSRTVAATNMNEESSRSHAVFNIIITQTLYDLQSGNSGEKVSKVSLVDLAGSERVSKTGAAGERLKEGSNINKSLTTLGLVISSLADQAAGKGKSKFVPYRDSVLTWLLKDNLGGNSQTSMIATISPAADNYEETLSTLRYADRAKRIVNHAVVNEDPNAKVIRELREEVEKLREQLSQAEAMKAELKEKLEESEKLIKELTVTWE	–	0.15	6.61	5.16
KIF13B(1-412ΔP391)-mCit-Flag (domain or fragment) MGDSKVKVAVRIRPMNRRETDLHTKCVVDVDANKVILNPVNTNLSKGDARGQPKVFAYDHCFWSMDESVKEKYAGQDIVFKCLGENILQNAFDGYNACIFAYGQTGSGKSYTMMGTADQPGLIPRLCSGLFERTQKEENEEQSFKVEVSYMEIYNEKVRDLLDPKGSRQTLKVREHSVLGPYVDGLSKLAVTSYKDIESLMSEGNKSRTVAATNMNEESSRSHAVFKITLTHTLYDVKSGTSGEKVGKLSLVDLAGSERATKTGAAGDRLKEGSNINKSLTTLGLVISALADQSAGKNKNKFVPYRDSVLTWLLKDSLGGNSKTAMVATVSPAADNYDETLSTLRYADRAKHIVNHAVVNEDPNARIIRDLREEVEKLREQLTKAEAMKSELKDRLEESEKLIQEMTVTWE	–	0.12	8.06	4.23
